Sequences and labels used below:
B2: human mature dimer BMP10 recombinant protein (manufactured by R&D systems, Cat#2926-BP) (ligand)
chain: NAKGNYCKRTPLYIDFKEIGWDSWIIAPPGYEAYECRGVCNYPLAEHLTPTKHAIIQALVHLKNSQKASKACCVPTKLEPISILYLDKGVVTYKFKYEGMAVSECGCR

Assay [1] concerns the target B2. Kind of assay: ELISA, immobilized antigen (100 ng/mL coat), biotin-labeled antibody at 100 ng/mL, absorbance 450-570 nm. As to the method: To examine specificity of the obtained antibodies to human BMP9, their binding ability to human BMP9 and human BMP10 having the highest homology to human BMP9 was tested by comparison. First, 100 ng/mL of human mature dimer BMP9 recombinant protein (manufactured by R&D systems, Cat#3209-BP), or human mature dimer BMP10 recombinant protein (manufactured by R&D systems, Cat#2926-BP) prepared in 50 mmol/L NaHCO₃ buffer (manufactured by Wako, Cat#191-01305) was added to a 96-well plate for ELISA (F96 MAXISORP NUNC-IMMUNO PLATE, manufactured by Thermo Fisher Scientific, Cat#442404) at an amount of 50 μL/well, and left at 4° C. overnight for adsorption.
Subsequently, 6D10-1-1 antibody, 10D5-2-3 antibody, 3B7-3-3 antibody, R&D antibody, or anti-BMP10 antibody (manufactured by R&D, Cat#MAB2926) that was labeled with biotin using a Biotin Labeling Kit-NH2 (manufactured by COSMO BIO, Cat#LK03) was prepared at a concentration of 100 ng/mL using 10% Super Block in TBST which was prepared by mixing SuperBlock and TBST at a ratio of 1:9. 50 μL/well thereof was aliquoted as a primary antibody, and left at room temperature for 1 hour.
(§1) The plate was washed with TBST five times, and 50 μL/well of the TMB substrate reagent (TMB+ Substrate-Chromogen, manufactured by Dako, Cat#S1599) was added for color-development. When proper color was developed, 50 μL/well of the 1 N sulfuric acid solution (manufactured by Wako, Cat#192-04755) was added, and absorbance (450 nm-570 nm) at a sample wavelength of 450 nm and at a reference wavelength of 570 nm was determined using a plate reader (manufactured by Spectra Max, Molecular Devices).

For assay [2], the target named is T1, human BMP9 recombinant protein prepared according to Example 12 of WO 2010/126169 (N-terminal His-tagged … (human, UniProt Q9UK05 320-429; Q9UK05 23-319).
T1 construct: not shown: N-terminal His tag
T1 sequence 1: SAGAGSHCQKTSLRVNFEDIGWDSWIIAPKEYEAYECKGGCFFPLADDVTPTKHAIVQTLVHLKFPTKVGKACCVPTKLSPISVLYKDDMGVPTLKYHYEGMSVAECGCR
T1 sequence 2: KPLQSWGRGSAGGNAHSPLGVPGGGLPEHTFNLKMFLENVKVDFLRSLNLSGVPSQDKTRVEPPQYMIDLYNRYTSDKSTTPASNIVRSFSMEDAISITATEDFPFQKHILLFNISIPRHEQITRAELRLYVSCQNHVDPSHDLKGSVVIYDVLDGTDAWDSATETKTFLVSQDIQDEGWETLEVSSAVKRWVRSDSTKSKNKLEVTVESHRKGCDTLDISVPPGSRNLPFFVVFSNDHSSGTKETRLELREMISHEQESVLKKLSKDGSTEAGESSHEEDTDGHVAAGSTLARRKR
As to the kind of experiment: SPR (BIAcore 2000), antibody captured on anti-mouse IgG, human BMP9 recombinant protein as analyte, single cycle kinetics. The text has this:
The binding activity (affinity) of the obtained antibodies to human BMP9 recombinant protein was examined using BIAcore 2000 (manufactured by GE Healthcare). After anti-mouse IgG antibody was immobilized onto a CM5 sensor chip using a Mouse Antibody Capture Kit (manufactured by GE Healthcare), anti-human BMP9 antibody was coupled to an RU value of 700-1100.
Thereafter, 0.152 nmol/L, 0.457 nmol/L, 1.37 nmol/L, 4.1 nmol/L, 12.3 nmol/L, 36.89 nmol/L, 110.67 nmol/L, and […] of the human BMP9 recombinant protein prepared in Example 7-1 were prepared by using an HBS-EP solution (manufactured by GE Healthcare) and added as analytes, and binding affinity was measured.
Based on the obtained values, the dissociation constant (Kd value) was calculated by single cycle kinetics (BIAevaluation Software ver. 3, manufactured by GE Healthcare).

For assay [3], the target named is T2, N-terminal His-tagged BMP10 expressed by the pLN1V5_human BMP10 vector (human, UniProt O95393 22-424).
T2 sequence: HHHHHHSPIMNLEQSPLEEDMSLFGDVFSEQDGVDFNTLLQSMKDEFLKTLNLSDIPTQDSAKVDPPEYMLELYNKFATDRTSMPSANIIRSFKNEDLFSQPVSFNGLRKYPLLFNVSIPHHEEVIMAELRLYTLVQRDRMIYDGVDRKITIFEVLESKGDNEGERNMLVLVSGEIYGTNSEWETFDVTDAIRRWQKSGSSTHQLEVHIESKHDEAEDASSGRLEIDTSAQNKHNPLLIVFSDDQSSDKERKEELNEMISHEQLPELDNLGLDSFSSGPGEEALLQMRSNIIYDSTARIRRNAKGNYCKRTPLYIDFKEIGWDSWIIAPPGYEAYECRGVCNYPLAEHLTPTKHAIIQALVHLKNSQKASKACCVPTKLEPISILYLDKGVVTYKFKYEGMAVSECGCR
As to the kind of experiment: antigen-immobilized ELISA, antigen coated at 3 ug/mL. As to the method:
(§2) Antigen immobilized ELISA of the obtained antibodies was performed using the chimeric protein. 3 μg/mL of the recombinant human BMP9, BMP10, and BMP9/10 chimeric proteins of Example 20-2 in 50 mmol/L NaHCO₃ buffer were added to a 96-well plate for ELISA (F96 MAXISORP NUNC-IMMUNO PLATE, manufactured by Thermo Fisher Scientific, Cat#442404) at an amount of 50 μL/well, and left at 4° C. overnight for adsorption.
(§3) After removal of the reagent for immobilization, 200 μL/well of 1% BSA-PBS was added, and left at room temperature for 1 hour for blocking, and washing was carried out using PBST five times. […]
(§4) The plate was washed with PBST ten times, and 50 μL/well of the TMB chromogen reagent (TMB+Substrate-Chromogen, manufactured by Dako, Cat#S 1599) was added for chromogenic reaction. When the intensity of chromogenic reaction became strong enough, 50 μL/well of a 1 N sulfuric acid solution (manufactured by Wako, Cat#192-04755) was added, and absorbance at 450 nm and 570 nm was determined using a Multiskan Spectrum (manufactured by Thermo Labsystems).

Assay [4] concerns the target T3, chimeric protein 5 of human BMP9/10 region C (human, UniProt Q9UK05 320-429; Q9UK05 23-319).
T3 construct: Made in the pLN1V5_human BMP9 vector (His-tagged complex); also called Chimera 5; human BMP9/BMP10 chimeric protein 5; not shown: N-terminal His tag
T3 chain 1: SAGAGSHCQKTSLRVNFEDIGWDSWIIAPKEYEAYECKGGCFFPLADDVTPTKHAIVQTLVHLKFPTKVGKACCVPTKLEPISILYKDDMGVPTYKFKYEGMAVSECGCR
T3 chain 2: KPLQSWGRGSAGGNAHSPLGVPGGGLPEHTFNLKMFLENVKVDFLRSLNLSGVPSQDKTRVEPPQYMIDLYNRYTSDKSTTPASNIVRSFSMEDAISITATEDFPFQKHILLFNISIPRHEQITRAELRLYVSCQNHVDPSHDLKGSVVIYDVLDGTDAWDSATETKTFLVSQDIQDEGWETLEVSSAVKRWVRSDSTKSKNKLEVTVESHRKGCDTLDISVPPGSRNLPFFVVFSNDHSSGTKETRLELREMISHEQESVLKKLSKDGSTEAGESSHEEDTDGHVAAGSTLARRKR
As to the kind of experiment: antigen-immobilized ELISA, antigen coated at 3 ug/mL, antibody 1000 ng/mL; + = absorbance of 1 or more. As to the method:
as §2, §3, §4

The target in assay [5] is T4, full-length human ALK1 expressed on the reporter cell line ALK1/p(GCCG)12-Luc/HepG2(38.5) (human, UniProt P37023 22-503). Kind of assay: cell-based or functional assay.
T4 sequence (P37023 22-503 limits assumed): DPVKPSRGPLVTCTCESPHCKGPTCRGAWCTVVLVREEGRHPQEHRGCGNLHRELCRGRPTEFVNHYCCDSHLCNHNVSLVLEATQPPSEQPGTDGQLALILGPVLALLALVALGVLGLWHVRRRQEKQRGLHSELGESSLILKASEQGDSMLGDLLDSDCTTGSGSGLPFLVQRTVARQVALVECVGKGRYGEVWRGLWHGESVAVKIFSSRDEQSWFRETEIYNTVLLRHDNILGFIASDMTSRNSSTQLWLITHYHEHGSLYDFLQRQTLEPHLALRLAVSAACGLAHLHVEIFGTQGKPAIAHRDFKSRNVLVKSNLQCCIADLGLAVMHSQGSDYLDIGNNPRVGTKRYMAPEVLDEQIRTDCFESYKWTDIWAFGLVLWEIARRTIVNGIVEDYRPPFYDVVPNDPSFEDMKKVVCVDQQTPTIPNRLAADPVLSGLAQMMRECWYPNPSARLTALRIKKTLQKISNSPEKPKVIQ
The target in assay [6] is T4, full-length human ALK1 expressed on the …. As to the kind of experiment: cell-based or functional assay. This is another data set of the same source.
The target in assay [7] is T5, human mature dimer BMP9 recombinant protein (manufactured by R&D systems, Cat#3209-BP) (human, UniProt Q9UK05 320-429).
T5 construct: Bought protein; also called human BMP9; human BMP9 recombinant protein (manufactured by R&D systems)
T5 sequence: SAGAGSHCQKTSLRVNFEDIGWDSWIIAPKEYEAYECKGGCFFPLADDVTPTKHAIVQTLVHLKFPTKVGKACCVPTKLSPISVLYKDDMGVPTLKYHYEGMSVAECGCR
As to the kind of experiment: ELISA, immobilized human BMP9 (100 ng/mL coat), biotin-labeled antibody titrated, absorbance 450-570 nm; unit ng/mL from the legend. As to the method:
First, 100 ng/mL of human mature dimer BMP9 recombinant protein (manufactured by R&D systems, Cat#3209-BP) prepared in 50 mmol/L NaHCO₃ buffer was added to a 96-well plate for ELISA (F96 MAXISORP NUNC-IMMUNO PLATE, manufactured by Thermo Fisher Scientific, Cat#439454) at an amount of 50 μL/well, and left at 4° C. overnight for adsorption.
After removal of the reagent for immobilization, 200 μL/well of SuperBlock (manufactured by Thermo […], Cat#37535) was added, and left at room temperature for 1 hour for blocking, and washing was carried out using TBST three times. Subsequently, the biotin-labeled 6D10-1-1 antibody, 10D5-2-3 antibody, 3B7-3-3 antibody or R&D antibody was prepared at a concentration of 1, 5, 20, 100, or 300 ng/mL using 10% Super Block in TBST. Each 50 μL/well thereof was aliquoted, and left at room temperature for 1 hour.
as §1

B1: 10D5-2-3 antibody (antibody, mouse IgG1, V domains shown)
VH: EVKLEESRGGLVQPGGSMKLSCVASGFTFSNYWMNWVRQSPEKGLEWVAHIRLKSDNYATHYAESVRGRFTISRDDSKSSVFLQMNNLRAEDTGIYYCTGGSNYVFAFWGQGTLVTVSA
VL: not shown
notes: Mouse monoclonal from a BMP9 KO mouse hybridoma; mouse IgG1 heavy chain, kappa light chain
B1: the figures for the binding result in assay [1], in assay [3] and in assay [4] were “no binding (tested: 100 ng/mL)”, “no binding” and “binds”, respectively. Further, the dissociation constant (Kd) in assay [2] is 0.00969 nM. Further, the “Relative binding affinity (to R&D antibody)” value in assay [2] came to 63.6 fold.
As to B2, the “EC50 (read off the curve); luciferase activity (RLU) of human ALK1 reporter cells, with 3 ug/mL 6D10-1-1 antibody alone (filled square)” value in assay [5] is about 0.4 ng/mL. For the same molecule, in assay [6], the “EC50 (read off the curve); luciferase activity (RLU) of human ALK1 reporter cells, with 3 ug/mL 10D5-2-3 antibody alone (filled square)” value was about 0.3 ng/mL; the “EC50 (read off the curve); luciferase activity (RLU) of human ALK1 reporter cells, with the complex of 3 ug/mL 10D5-2-3 antibody and 2 ng/mL human BMP9 (open triangle)” value was about 0.3 ng/mL; the “EC50 (read off the curve); luciferase activity (RLU) of human ALK1 reporter cells, with the complex of 3 ug/mL 10D5-2-3 antibody and 10 ng/mL human BMP9 (open circle)” value is about 0.2 ng/mL.

B3: 6D10-1-1 antibody (antibody, mouse IgG1, V domains shown)
VH: QVQLQQSGAELVRPGTSVKVSCKASGYAFTNYLMEWIKQRPGQGLEWIGVIHPGIGVTNYNEKFKGKATLTADISSSTAYMQLSSLTSEDSAVYFCARRANWDLYYFDYWGQGTTLTVSS
VL: DIQMTQITSSLSASLGDRVTISCSASQDISNYLNWYQQKPDGTVKLLIYYTSSLHSEVPSRFSGSGSGTDYSLTISNLEPEDIATYYCQQYINLPLTFGAGTKLELKR
notes: Mouse monoclonal from a BMP9 KO mouse hybridoma; also called 610D-1-1 antibody
In the case of B3, in assay [7], the 50% effective concentration (EC50 (read off the curve)) was about 8 ng/mL. For the same molecule, the binding result in assay [1] is listed as “no binding (tested: 100 ng/mL)”. Moreover, in assay [2], the Kd came out at 0.0297 nM and the “Relative binding affinity (to R&D antibody)” value is 20.7 fold. The binding result in assay [3] is “no binding”.

(Values after patent US20140056902A1 (Kyowa Kirin, published 2014).)
